# Measurements reported in the DeepSol protein solubility set.
# Test: soluble on expression in E. coli; label from the status in PepcDB or PDB records
row,Sequence,soluble on expression in E. coli
1,MSLDDYTVRVRVPGGEWKDLFEYNVQVDMDRVQDASMVQFDMGSLVEVMVKKNNGTIHEVDIRPQVNDIRYVQYKNVITFMLDKPRYLSVEFNGDRLHNLHVFANPMETETYSKEEKGVMYFGPGVHRPKDLPNNQIRIPSNTTVYLAPGAVVKAKLWVDKAENVRIVGRGILDHPIRGIEITDSKNVVVDGITVINPDHYTVFGGGSVGVTIRNLKSFSCKGWSDGIDMMCCHDVLIDNVFMRNSDDCIALYNHRWNWWGGSDNITVQNSILWADIAHPINVGGHGDPESLIGETIENLIFRNIDILEHDEDDVPYQGCMAIDAGDRNRVKNILFEDIRVESIQEGKLFHINIRFNPKYDKQPGQSIDGVTFRNITYNGVGENPSLIKGLDKERMVRNITFENVVVNGEKIKDLKGFITNEYIEGIKIKEGHHHHHH,not soluble
2,MGSDKIHHHHHHMPNTFEHLQAAHCENGVTTNLLRNVGVSKMTEPLAFGIGSGLFFIYIPLMKINGGPAIAYRTMPGLIFKRTAQSLGIDVVRKTFRSTIKAQEFLDACIKAGQPVGCQVGVYFLSYFPKEYRFHFNAHNLIVYGKEGDNYLVSDPVMETTNILSTYELERVRFAKGALAPKGQIYFPKPNHEPVSDDKIRKAIVTGVKRNIRDMLHIPGPIAGVSGIKYTGNKIKNWRDKLGIEKAGLYLAQLVRMQEEIGTGGGGFRFIYGAFLQQAHAFHNDDQLLEISKSFTQSGDLWRSAAIQAAGIYKGRITSQADFNVMGDYLLEISELEKKAFKELTKIKWQK,not soluble
3,MGSDKIHHHHHHETEAPQVTTSSRPAVEIKYNDPRDPFEEVNRTMWDFNYLFLDRYVIRPVAHGYKDYVPNPVRTGVNNFVYNLEEPSSLVNNTLQGKWGWAANAGGRFTVNTTIGLLGLVDVADMMGMHRKQDDFNEVLGYYGTPNGPYFMAPFYGPIVTREIASDWVDGLYFPLSELTIWQSVLKWGLKGLDARSKAIDQERLLDNALDPYAFVKDAYLQHMDYKVFDGDVPSSQADDELLDEYLDELE,not soluble
4,MDAELFPRSRAQVAPDAVHVPDWADAGRQRRFLAACRDWARPPAGLRTVHTPGGGTMTSRQVCLGWHWYPYGYARTVVDGDGAPVKPLPDWLAELGRDAVSDALGPQAVPPVPYDIALINFYGADARMGMHRDSDEKSGAPVVSLSVGDTCVFRFGNARTRTRPYTDVELRSGDLFVFGGASRLAYHGVPRVYADTAPPELGLVGRLNITLRVSGFQDPSGE,not soluble
5,MGSDKIHHHHHHMRKISVFDTTLRDGEQSAGVNLNFEEKMEIAKQLERLGVDIIEAGFPASSQGDFQSVKAIAETVKGSSVTGLARSVQKDIDAAWEALKSAEEPRIHLFIATSPIHMEHKLRMTPEQVIEKAVESVKYAASRFKHVQWSAEDASRSDFPFLAQIIEAVIQAGATVINLPDTVGYTTPQEIKRMFQYMKQNVPSIDKVSLSTHNHDDLGMAVANSLAAIQGGADQVECTINGIGERAGNASLEEIAVALNIRKDHYETETGLILKEIKRTSSLVSKLTGMVVPNNKAVVGANAFAHESGIHQDGVLKNKQTYEIITPEMVGVSSNSMVLGKHSGRHAFKTKVQELGFTGTDEQLNNIFKAFKDLADKKKEITEDDLFALMTEQTVGGETNHYELQTLQVNYGSNLTNTATITMKLPSGEVAEEAATGSGSVEAIYNTLERLLDAPVKLLDYRIQSITGGRDALADVYVQMDYQGVVSSGRGTAHDVLEASAKAYLNAVNRTINRKKYAEVYGSKVEV,not soluble
6,MKKVRKLYEGKAKIVYETDEKDKLILEFKDVATAFDGVKKEEIKGKGSLNNEISSLIFEILEDHGIKTHYIKKLSDREMLVWRAERFPVEVVVRNYAAGSFVKRYGVKEGTKLEQPLVEFFMKSDELHDPMVCINHIKVLKLAPAELVPEMEKIALKVNEILKKIFEEKGILLVDFKLEFGRLPSGELAIVDEISPDSMRLWDKSTGENWIKTDSV,soluble
7,MRDNASLAHTQWNCKYHIVFAPKYRRQVIYGKIKKDIGQILRKLCEMKGVEIIEASLCPDHIHMLVSIPPKISVSSFMGYLKGKSSLMIFNRHANLKYKYGNRHFWCRGYYVDTVGRNRKAIEQYIRRQLQEDIASDQISLNEYIDPFTGERVNKSKK,not soluble
8,DEICKNQYLYRINQENYVLFSFDIFDTLISRNIAKPSAVFLIMKQKMRNMDFPLNLVKNFDRIRVEVEQYYYRNVCKNKYEDTNFDEIYNLLQQNFSLSFQQKEELMKLEINTEKETLYPIKKNIELVEELIKNEKRVVLISDMYFSSSIIRTFLNKFSPIFNNIPIYMSSEFRLKKNSGNLFKAILNLEKVDPKKWIHCGDNWVGDYLKPSNLEISTNFYINQLLPYEEFALNRNSLDMDLQKIIGISKKIR,not soluble
9,MSNASSTSSGRSSRAEVLWADVLSHIPFVKRFTTPDSRKEQKVRILSKNEVDEEDGVQLEQLIQNQEVILCHSSSMNFHQQCRGSVVDFEYIEKKVKVTVSSESDFPIWEDTDIWMQALSTPTSSLYAIDANTSVNSELIEDESVVQEQKEQISERAPLRLSDDIEEFGDVLVDVIKKKTDTKNNVFTITLGLTGFARFHAEIQLSKESTYYLNFDDGYEDDLASLASEEDILSGYQTIQNVDELCDKIGELTVTDVCIKTWFDILHNYAYIRLIVTSAKRKLQHFKLLTGHHVIIQSATSDRDTVLAVVSRVMKDGIVLTLQGVKKQTKNFVFSKNELFTIQIDHNYEDRLQKLTGKEEEHENLRRELINSDSDIRLHRSWKSNGKQYATFTSKNDAFKKIPFNTKFLLGKCWEAEGVLEKKADFIFAIRVADKNFSTPSTMTFEIKFTRNLVRNSKDFELSKAFYYVDFDLAHFVESDHCYSLLNAKSVNGKPDETVVKSCPIDEDLVFSVFPFQCGRRAEERRRGYQESQREVQSSTKKPDVKVEKNVKLEAPEKQNKRKDTALNPKEKYCAQKLEKQLNDQTKTPKQKPKQETSAGIKRESTQRPCVIPRTFETSNSKDASNKVPLQSVSEPKILLQDTNSRCAQPRKAVSHEGLKSHQQENVLKHLDNKHKFLCFVNIAKRIENDNGNPLVELSIGFDENGGKVQQSPWPLGIRMLLTDGLEKTEVKIQGDVQDTNGETVTFMIQQQLSDLDFLNSYKPKKLLACFREHGHNLK,not soluble
10,MSDYQMFEVQVSQVEPLTEQVKRFTLVATDGKPLPAFTGGSHVIVQMSDGDNQYSNAYSLLSSPHDTSCYQIAVRLEENSRGGSRFLHQQVKVGDRLTISTPNNLFALIPSARKHLFIAGGIGITPFLSHMAELQHSDVDWQLHYCSRNPESCAFRDELVQHPQAEKVHLHHSSTGTRLELARLLADIEPGTHVYTCGPEALIEAVRSEAARLDIAADTLHFEQFAIEDKTGDAFTLVLARSGKEFVVPEEMTILQVIENNKAAKVECLCREGVCGTCETAILEGEADHRDQYFSDEERASQQSMLICSRAKGKRLVLDL,soluble
11,MADFDTNPTSLYSIKGIVILDQDGNRVLAKYYDRTTFGTVKEQKAFEKSLFSKTSRNTSADILLLDGVTCLYRSNVDLYFYVLGSTRENELFLDATLTCLYDAVSVVLRKNVEKKALIDSMDTIMLIIDEICDEGIIMETDAQAVVQRTALKSDEVSFSDQSVSQIGFSFMKSANEQFKWSLLK,not soluble
12,MRMENQKDLQENYLKVLERVELGSRVSGTVVNIMKDYVLVDIGYKSEGFIKIEEFENVPQVGDRLEAIVVRIGGELGLILSVEKLNSLNFQDKVYEYIQNKKIIKGKVLVELPNGYKIQINENVSGFMPFYLSSKSKDEKLKRGSVVEFYILEASEADGLRLILDRRTLEKERDLAKRIELVSSYNEEDVVDGVVERITEYGAIVKIKNFVTGILHKRNIAFNQVENVEDFVRVGDKLKLKIIKINPQTGKMELSLKALKANPWDSVDVKYKIDSIVKGKVVKILPFGAVIELDSELSGFLHISNFSWIRVVKSPQELIKLGQIVEVKILEIDKENQKISLGIKQINENPWERLTEKYPIGRVVQGVVTNITKTGAFVNIEEGIDAYVSKFDISWLEEIDPEEYFKIGDLVNGKVLEVDKRKRNVRLGIKQLEESPWEDFSKSYKKGDTIEVEIVEKKSKGFQVRVYNKIMGFISKIQLGDTKESSLETFEKLNVGDKLKVVITSIDSKDKSVLLSYREYENQRSREEISSYLFKGNDEESYKPFENLLKRDELEHHHHHH,soluble
13,MAHHHHHHMGISVSHLLERLRTLFEPLEVVCALQLKCLLETRQLDYCNVSLNELQRAEAGLRSLLVDHPLDIEVGAQWEHLEDELQRLHVRFSVPVPTFRLLVRRSARALRSAVRALGWDGKIQRRLWQEEGEEPRDDGVQEPLRAFDAGGLSTCTVDEICNEGGVQDRSAAVFSAVAKLYHHRLALGAQSLVAAERLGPALGANVRAASRVPSLTLPNSAADPTHPRFKADLYAVSPDALSCTAARREAYAAS,not soluble
14,MDYQTFEKVNKFINVKAYIFFLTQELKQQYKLSLKELLILAYFYYKNEHSISLKEIIGDILYKQSDVVKNIKSLSKKGFINKSRNEADERRIFVSVTPIQRKKIACVINELDKIIKGFNKERDYIKYQWAPKYSKEFFILFMNIMYSKDFLKYRFNLTFLDLSILYVISSRKNEILNLKDLFESIRFMYPQIVRSVNRLNNKGMLIKERSLADERIVLIKINKIQYNTIKSIFTDTSKILKPRKFFF,not soluble
15,MGSDKIHHHHHHATWITTLGGMDWPRNKAVNASGIRRQQKELCDILDRLKAANFNTVLLQTRLRGDMIYPSAIETFGESLTGSTGGNPGYDPLAFAIGECHKRGMELHAWIVTIPAGNTRQVQLQGRSSVVRKNRTICKLYKGNWYLDPGNPGTKEYLSCIVKEITSRYDIDGIHFDYIRYPEQADNFPDKDTYRKYGKGKELKQWRRDNITDIVHRLYTDIKTIKPWVKVSSSPIGKYRDTNRYPSRGWNAYHVVYQDAQKWLKEGIHDALFPMMYFQGNNFYPFALDWKENCGNRWIVPGLGIYFLSPDEQNWPLDEIVRQLHFTRQIKLNGQAYFRNRFLLNNTKGIWDELQENFYTTPALIPPMTWMDSIPPSTPAMPSLQLLPDGKMHMSWQISTDNNGGLVTYHLYASDTYPVDITDAGNLLETYLTHTEYEYTPISPWRQKRYFAVTAADRFGNESAPLELNAISETDMPLLNDGDILTLPEIKEAKTVKIFTVTGEEIKYFVYAPQMSIASLPGGFYTVYILNNAGAQTFVGTIVK,not soluble
16,MSKVPVVGIVAALLPEMGIGFQGNLPWRLAKEMKYFREVTTLTNDNSKQNVVIMGRKTWESIPQKFRPLPKRINVVVSRSFDGELRKVEDGIYHSNSLRNCLTALQSSLANENKIERIYIIGGGEIYRQSMDLADHWLITKIMPLPETTIPQMDTFLQKQELEQRFYDNSDKLVDFLPSSIQLEGRLTSQEWNGELVKGLPVQEKGYQFYFTLYTKKLEHHHHHHHH,soluble
17,MRKAAVIGGSLGGLFAANLLLRAGWDVHVHERVHDELDGRGAGIVTHPELLDVLRRIGVAPTESIGIEVARRVTLDLDGSVLASRALPQLLTAWGRLFSILRTRFPAERYHRGQALESLEQDERRALLRFADGARAEVDLVVAADGLRSTLRQALLPQARPAYAGYVAWRGLVDEASLSERTRRELCPYFAFGLPAHEQMIAYPVAGTGSGAQDAARRFNFVWYRPADEHTTFRDMVTDAQGQAWMDGIPPPLIRPEIVAQARQAAAQVLAPQFGEVVAKTANLFFQPIFDLESPRLALGRVALLGDAAFVARPHCGMGVTKAAGDARALAYALAGTPDIGAALQAYEDERLPFGKFIVGHARDLGRYMQAQLRDDAEREMAERYRTPEAIMRETAVAPAWRLEHHHHHH,not soluble
18,MDNCLAAAALNGVDRRSLQRSAKLALEVLERAKRRAVDWHALERPKGCMGVLAREAPHLEKQPAAGPQRVLPGEREERPPTLSASFRTMAEFMDYTSSQCGKYYSSVPEEGGATHVYRYHRGESKLHMCLDIGNGQRKDRKKTSLGPGGSYQISEHAPEASQPAENISKDLYIEVYPGTYSVTVGSNDLTKKTHVVAVDSGQSVDLVFPVLEHHHHHH,soluble
